The target in one experiment is T1, recombinant human FGL2 (human, UniProt Q14314 30-439, limits assumed).
T1 construct: also called hFGL2; FGL2/fibroleukin
T1 sequence (looked up): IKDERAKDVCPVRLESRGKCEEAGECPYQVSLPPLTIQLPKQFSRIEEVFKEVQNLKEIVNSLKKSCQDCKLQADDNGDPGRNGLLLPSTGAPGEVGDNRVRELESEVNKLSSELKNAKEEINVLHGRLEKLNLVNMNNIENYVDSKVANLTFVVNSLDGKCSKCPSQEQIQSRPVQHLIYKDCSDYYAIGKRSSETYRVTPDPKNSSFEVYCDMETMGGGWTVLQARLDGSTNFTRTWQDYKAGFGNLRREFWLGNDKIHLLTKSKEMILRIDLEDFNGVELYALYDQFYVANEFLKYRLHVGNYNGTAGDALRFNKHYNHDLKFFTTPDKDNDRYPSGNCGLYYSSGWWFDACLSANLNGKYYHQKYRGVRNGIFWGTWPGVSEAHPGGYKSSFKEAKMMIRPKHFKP
Nature of the experiment: SPR, Biacore 3000, 25 C, antibody captured by goat anti-mouse Fc, FGL2 as analyte. How it is done:
(§1) The response difference (Resp. Diff.) for each experiment was plotted against time (s). Resp. Diff. is the ligand-immobilized flow cell minus the control flow cell. A) Human FGL2. For the full kinetic analysis, SPR was performed using 0.625 nM, 2.5 nM, 5 nM, and 10 nM recombinant human FGL2. B) Mouse FGL2. For this analysis, SPR was performed using 10 nM recombinant mouse FGL2.
(§2) Binding experiments were performed on Biacore 3000 at 25° C. Flow cell 2 was coated with 1,000 RU of the goat anti-mouse Fc capture Ab by direct immobilization using EDC/NHS amine coupling method and the unoccupied sites were blocked with 1M ethanolamine. 9D8 or 3H9 was captured at an RU as indicated. Either recombinant human or mouse FGL2 was flowed over the chip and binding to 9D8 or 3H9 was monitored in real time. From the observed kon and koff, KD was determined.

The next experiment deals with T2, recombinant mouse FGL2 (mouse, UniProt P12804 27-432, limits assumed).
T2 construct: native mouse FGL2 is said to exist as an oligomer; also called murine recombinant FGL2
T2 sequence (looked up): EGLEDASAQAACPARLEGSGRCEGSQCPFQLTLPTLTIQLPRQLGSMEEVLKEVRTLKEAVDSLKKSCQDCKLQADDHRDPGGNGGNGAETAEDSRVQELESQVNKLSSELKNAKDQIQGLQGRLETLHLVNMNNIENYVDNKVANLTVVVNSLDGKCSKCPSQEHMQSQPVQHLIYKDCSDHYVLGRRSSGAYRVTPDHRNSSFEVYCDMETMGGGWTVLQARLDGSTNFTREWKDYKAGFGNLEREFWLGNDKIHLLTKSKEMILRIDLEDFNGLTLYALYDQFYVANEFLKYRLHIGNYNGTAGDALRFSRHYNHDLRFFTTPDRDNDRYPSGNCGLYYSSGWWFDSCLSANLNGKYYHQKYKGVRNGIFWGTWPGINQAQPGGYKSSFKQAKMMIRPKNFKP
Described as above. How it is done: as §1, §2

B1: anti-FGL2 monoclonal antibody 9D8 (antibody, mouse IgG1, kappa, V domains shown)
VH: EVQLQQSGAELVKPGASVQLSCTASGFNIKDTYIHWVKQRPEQGLEWIGRIDPEDGNTKYDPKFQAKATITADTFSNTAYLQLSSLTSEDTAVYYCARSYGNAYWGQGTLVTVSA
VL: DIVLTQSPASLAVSLGQRATISCRASQSVSTSRYTYMHWYQQKPGQPPKLLIKYASNLDSGVPARFSGSGSGTDFTLNIHPVQEEDTATYYCQHSWEIWAFGGGTKLEIKR
notes: Mouse hybridoma antibody purified from ascites; isotype-matched control was IgG1; here built without leader from variable region plus constant region; also called clone 9D8; antibody to FGL2 (9D8)
For the molecule B1, in the experiment with recombinant human FGL2, the Kd came out at 857 pM, the koff came out at 0.0019 s⁻¹ and the kon came to 2.22e+06 M⁻¹ s⁻¹. In addition, in the experiment with recombinant mouse FGL2, the Kd was 1800 pM, the koff worked out at 0.00334 s⁻¹ and the kon stood at 1.85e+06 M⁻¹ s⁻¹.

B2: anti-FGL2 monoclonal antibody 3H9 (antibody, mouse IgG2b, kappa, V domains shown)
VH: EVQLQQSGPELVKSGASVKISCKTSGYTFTEYTIHWVKQSHGESLEWVGGINPKNGGISYNQKFKGKATLTVDKSSSTAYMELRSLTSEDSAVYFCARWGIGNYVGFPYWGQGTLVTVSA
VL: SIVMTQTPKFLLVSAGDRVTMTCKASLSVNNDVAWYQQKPGQSPKLLISYASSRYTGVPDRFTGSGYGTDFTFTISSVQAEDLAVYFCQQDYSSPLTFGAGTKLELKR
notes: Mouse hybridoma antibody generated in the same manner as 9D8; here built without leader
On to B2, for which, in the experiment with recombinant human FGL2, the Kd was determined as 286 pM, the koff stood at 0.000884 s⁻¹ and the kon turned out to be 3.09e+06 M⁻¹ s⁻¹. For the same molecule, in the experiment with recombinant mouse FGL2, the Kd turned out to be 103 pM, the dissociation rate constant (koff) came out at 0.000189 s⁻¹ and the kon was determined as 1.84e+06 M⁻¹ s⁻¹.

These data come from US20200190176A1 (VERITAS THERAPEUTICS, published 2020).
